According to PMC3488246:

Legend:
[1] = target: T1, PALB2Δ1-40 (UniProt Q86YC2 41-1186, del1-40); experiment: EMSA
T1 sequence: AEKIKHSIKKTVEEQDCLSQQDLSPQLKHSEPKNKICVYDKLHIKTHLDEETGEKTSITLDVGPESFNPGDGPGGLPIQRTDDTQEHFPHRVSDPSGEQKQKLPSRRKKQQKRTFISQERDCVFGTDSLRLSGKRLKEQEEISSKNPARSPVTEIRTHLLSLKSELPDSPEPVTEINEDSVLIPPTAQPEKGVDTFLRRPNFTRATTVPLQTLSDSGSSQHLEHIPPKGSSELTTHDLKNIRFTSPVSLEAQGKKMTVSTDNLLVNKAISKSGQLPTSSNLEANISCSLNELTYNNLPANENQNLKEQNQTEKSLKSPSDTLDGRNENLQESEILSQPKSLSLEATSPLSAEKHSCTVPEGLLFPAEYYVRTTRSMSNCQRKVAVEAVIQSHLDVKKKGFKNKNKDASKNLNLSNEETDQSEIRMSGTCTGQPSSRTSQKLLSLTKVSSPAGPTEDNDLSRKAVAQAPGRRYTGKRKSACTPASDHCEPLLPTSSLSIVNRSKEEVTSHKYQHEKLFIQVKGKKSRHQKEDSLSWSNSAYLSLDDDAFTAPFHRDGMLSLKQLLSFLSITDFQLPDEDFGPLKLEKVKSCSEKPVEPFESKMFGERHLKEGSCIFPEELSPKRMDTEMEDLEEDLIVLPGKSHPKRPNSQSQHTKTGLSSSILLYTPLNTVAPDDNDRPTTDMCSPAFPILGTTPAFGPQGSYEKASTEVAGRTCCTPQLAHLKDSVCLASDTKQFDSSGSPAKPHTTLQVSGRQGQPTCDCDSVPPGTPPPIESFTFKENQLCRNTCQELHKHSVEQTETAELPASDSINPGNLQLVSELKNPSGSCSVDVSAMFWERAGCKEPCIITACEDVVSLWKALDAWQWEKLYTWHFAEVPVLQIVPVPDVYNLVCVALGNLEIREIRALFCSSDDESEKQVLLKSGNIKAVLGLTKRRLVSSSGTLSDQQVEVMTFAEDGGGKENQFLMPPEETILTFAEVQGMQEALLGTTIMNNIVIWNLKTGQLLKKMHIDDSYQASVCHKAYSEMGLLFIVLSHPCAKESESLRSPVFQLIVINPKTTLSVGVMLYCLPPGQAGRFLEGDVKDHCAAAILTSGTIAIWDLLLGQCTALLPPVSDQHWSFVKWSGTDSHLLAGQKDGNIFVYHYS

[2] = target: T2, PALB2 (UniProt Q86YC2 1-1186); experiment: EMSA
T2 sequence: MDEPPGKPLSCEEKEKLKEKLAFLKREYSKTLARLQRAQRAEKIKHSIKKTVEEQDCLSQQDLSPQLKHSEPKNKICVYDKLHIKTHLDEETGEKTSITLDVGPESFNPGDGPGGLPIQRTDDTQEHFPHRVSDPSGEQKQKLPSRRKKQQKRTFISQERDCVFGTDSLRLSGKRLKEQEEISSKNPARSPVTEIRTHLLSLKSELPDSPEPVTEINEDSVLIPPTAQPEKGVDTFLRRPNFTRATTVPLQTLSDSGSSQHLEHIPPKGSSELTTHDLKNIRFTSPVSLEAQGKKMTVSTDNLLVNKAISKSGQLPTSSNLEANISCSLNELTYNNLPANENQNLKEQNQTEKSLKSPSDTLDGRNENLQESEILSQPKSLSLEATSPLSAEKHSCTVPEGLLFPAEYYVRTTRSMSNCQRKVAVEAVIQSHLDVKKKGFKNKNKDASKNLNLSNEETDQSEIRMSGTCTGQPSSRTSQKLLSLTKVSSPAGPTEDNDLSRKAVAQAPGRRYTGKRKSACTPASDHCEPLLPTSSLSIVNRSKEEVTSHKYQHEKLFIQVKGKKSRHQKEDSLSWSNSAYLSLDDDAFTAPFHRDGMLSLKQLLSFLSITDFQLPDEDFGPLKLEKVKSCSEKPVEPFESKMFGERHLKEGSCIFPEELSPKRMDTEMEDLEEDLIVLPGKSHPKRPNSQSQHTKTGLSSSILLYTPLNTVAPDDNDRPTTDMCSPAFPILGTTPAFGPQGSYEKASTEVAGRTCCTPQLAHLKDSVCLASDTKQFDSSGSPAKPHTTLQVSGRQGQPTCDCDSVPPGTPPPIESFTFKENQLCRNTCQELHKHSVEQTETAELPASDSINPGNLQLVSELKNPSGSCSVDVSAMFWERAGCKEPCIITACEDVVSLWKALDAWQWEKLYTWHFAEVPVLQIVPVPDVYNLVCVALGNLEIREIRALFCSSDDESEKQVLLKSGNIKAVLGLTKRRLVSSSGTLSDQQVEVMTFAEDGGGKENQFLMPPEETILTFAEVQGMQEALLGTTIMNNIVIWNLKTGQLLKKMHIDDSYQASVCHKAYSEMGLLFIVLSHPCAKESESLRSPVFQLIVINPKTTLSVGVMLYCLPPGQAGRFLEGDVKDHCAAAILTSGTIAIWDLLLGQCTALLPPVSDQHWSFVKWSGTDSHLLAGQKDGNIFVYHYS

B1: 60 nt ssDNA (ssDNA)
DNA: GGGTGAACCTGCAGGTGGGCAAAGATGTCCTAGCAATGTAATCGTCAAGCTTTATGCCGT
B1 was tested, and the binding signal [1] was ~5 fold stronger affinity than PALB2 and the binding result [2] was “binds”.
